We go through 8 molecules from patent publication US10184140B2, “Materials and methods for production of bi-functional fatty acids in recombinant bacteria” (IOWA STATE UNIVERSITY RESEARCH FOUNDATION, INC., priority 2013, dated 2019).

Data set [1] is described as follows: Spectrophotometric coupled assay (FabD/FabG, NADPH at 340 nm) of KASIII specific activity with acyl-CoA substrates. The note with it: for Specific Activity with Isobutyryl-CoA: substrate isobutyryl-CoA; for Specific Activity with Isobutyryl-CoA / Specific Activity with Acetyl-CoA: n.d. = not detectable; for Specific Activity with Acetyl-CoA: substrate acetyl-CoA.
Procedure: The method comprises (i) incubating holo-ACP, malonyl-CoA, acyl-CoA, NADPH, and malonyl-CoA:ACP transacylase (FabD), (ii) adding KASIII and 3-ketoacyl-ACP reductase (FabG), and (iii) measuring the change in absorbance at 340 nm when NADPH is converted to NADP+ during reduction of 3-ketoacyl-ACP to 3-hydroxyl-acyl ACP by FabG.
Activity of A. acidocaldarius KASIII with different acyl-CoA substrates (acetyl-CoA, isobutyryl-CoA and 3-hydroxybutyryl-CoA (Sigma-Aldrich)) was ascertained by a coupled assay. The assay was performed in 96-well plate format with three replicates for each reaction condition. In a total volume of 100 μl for each reaction the reaction mix containing 100 μM holo-ACP, 200 μM malonyl-CoA, 10 mM DTT, 50 μM acyl-CoA substrate (either acetyl-CoA, isobutyryl-CoA or 3-hydroxy-butyryl-CoA) and 200 μM NADPH in 0.1 M sodium phosphate buffer (pH 7.2) was pre-incubated with 60 μg of FabD for two minutes. The reaction was started by the addition of 30 μg of FabG and varying concentrations of A. acidocaldarius (0.5-15 μg). Change in absorbance of NADPH that was being converted to NADP^+ during reduction of 3-ketoacyl-ACP 3-hydroxy-acyl-ACP by FabG was recorded at 340 nm using a Biotek multi-plate reader.
Spectrophotometric assay was used to assess the activity of A. acidocaldarius KASIII with various acyl-CoA substrates. The assay coupled the appearance of the KASIII-product (3-ketoacyl-ACP) to the oxidation of NADPH, catalyzed by 3-ketoacyl-ACP reductase (FabG).
KASIII enzymatic activity was ascertained via spectrophotometric assay, which coupled the appearance of 3-ketoacyl-ACP to the oxidation of NADPH, using the E. coli FabG protein to reduce 3-ketoacyl-ACP to 3-hydroxyacyl-ACP. The assay was performed in a 96-well plate-format with three technical replicates for each reaction condition. In a total volume of 100 μl for each reaction, the reaction mix contained 100 μM holo-ACP, 200 μM malonyl-CoA, 10 mM DTT, 50 μM acyl-CoA substrate, and 200 μM NADPH in 0.1 M sodium phosphate buffer (pH 7.2). This mixture was pre-incubated with 60 μg of FabD for two minutes to initiate synthesis of malonyl-ACP from malonyl-CoA and holo-ACP. The reaction was then started by the addition of 30 μg of FabG and varying concentrations of KASIII enzyme (0.5-15 μg). As KASIII catalysed the condensation of acyl-CoA with malonyl-ACP to form 3-ketoacyl-ACP, FabG reduced the 3-ketoacyl-ACP intermediate to 3-hydroxy-acyl ACP in the presence of NADPH.

Data set [2] is described as follows: Saturation Transfer Difference NMR of KASIII enzymes with acetyl-CoA or isobutyryl-CoA. Format: binding. The procedure: NMR experiments were performed at 25° C. on a Bruker AV700 MHz spectrometer equipped with a 5 mm HCN cryoprobe. Samples for STD NMR experiments were prepared in 0.1 M sodium phosphate buffer (pH 7.4) with 5% D2O. The protein/ligand ratio was set as 1:100 with KASIII concentration in the 20-25 μM range. Saturation was applied as CW pulse with a power of 58-60 Hz, with on-resonance pulses at 0.62 ppm and 6.86 ppm for upfield and downfield, respectively. The off-resonance pulse was applied at 45 ppm. 3-9-19 WATERGATE suppression was used with a T1-ρ filter. Saturation time of five seconds with an additional delay of 5.1 seconds was used. A set of three replicates was acquired, with 32 scans in each replicate, for each STD NMR experiment of KASIII wild-type or mutated enzyme with a ligand, which was either acetyl-CoA or isobutyryl-CoA (Sigma-Aldrich, St. Louis, Mo.). The reference and the saturated spectra were obtained in an interleaved manner. Resonance assignments of 1H NMR spectra of free ligands were completed using ID 1H and COSY.
Control experiments were carried out by applying on- and off-resonance saturation pulses either to the ligand in the absence of protein, or to the ligand in the presence of denatured protein.
Relative STD effects (ASTD) were calculated according to the equation ASTD=(Io−Isat)/Io where Isat is the signal intensity of the saturated spectrum and Io is the signal intensity of the reference spectrum (Mayer et al., J. Am. Chem. Soc. 123: 6108-6117 (2001)). STD amplification factor was calculated according to the equation: STDaf=ASTD×molar ligand excess.
STD NMR experiments elucidated interactions of these purified enzymes (both wild-type and mutated) with straight-chain substrate (acetyl-CoA) and branched-chain substrate (isobutyryl-CoA) and enabled mapping of binding epitopes on the two substrates. Relative saturation transfer to each of the binding epitopes was measured and converted to the STD amplification factor (STDaf), which is an indicator of ligand binding (Mayer et al., J. Am. Chem. Soc. 123: 6108-6117 (2001)). Ligand epitopes with high STDaf values are assumed to receive higher saturation transfer from the enzyme, and thus are in close contact with the enzyme.

B1: B. subtilis KASIIIb W221V: B. subtilis KASIIIB single mutant W221V, amino acid sequence SEQ ID NO:128 (protein)
chain: MSKAKITAIGTYAPSRRLTNADLEKIVDTSDEWIVQRTGMRERRIADEHQFTSDLCIEAVKNLKSRYKGTLDDVDMILVATTTSDYAFPSTACRVQEYFGWESTGALDINATCAGLTYGLHLANGLITSGLHQKILVIAGETLSKVTDYTDRTTCVLFGDAAGALLVERDEETPGFLASVQGTSGNGGDILYRAGLRNEINGVQLVGSGKMVQNGREVYKVAARTVPGEFERLLHKAGLSSDDLDWFVPHSANLRMIESICEKTPFPIEKTLTSVEHYGNTSSVSIVLALDLAVKAGKLKKDQIVLLFGFGGGLTYTGLLIKWGM
modifications: B. subtilis KASIIIB mutant; (221)..(221) tryptophan at amino acid position 221 replaced with valine
Consider B1, for which the “Specific Activity with Isobutyryl-CoA” value in data set [1] is given as “completely eliminated activity”.

B2: B. subtilis KASIIIb V226L: B. subtilis KASIIIB single mutant V226L, amino acid sequence SEQ ID NO:130 (protein)
chain: MSKAKITAIGTYAPSRRLTNADLEKIVDTSDEWIVQRTGMRERRIADEHQFTSDLCIEAVKNLKSRYKGTLDDVDMILVATTTSDYAFPSTACRVQEYFGWESTGALDINATCAGLTYGLHLANGLITSGLHQKILVIAGETLSKVTDYTDRTTCVLFGDAAGALLVERDEETPGFLASVQGTSGNGGDILYRAGLRNEINGVQLVGSGKMVQNGREVYKWAARTLPGEFERLLHKAGLSSDDLDWFVPHSANLRMIESICEKTPFPIEKTLTSVEHYGNTSSVSIVLALDLAVKAGKLKKDQIVLLFGFGGGLTYTGLLIKWGM
modifications: B. subtilis KASIIIB mutant; (226)..(226) valine at amino acid position 226 replaced with leucine
B2: the “Loss of activity with isobutyryl-CoA” value in data set [1] (mutant compared with wild-type enzyme) is recorded as “approximately 50%”. Besides, in data set [1], the “Specific Activity with Isobutyryl-CoA” value turned out to be 134 ± 6 nmol/min/mg.

B3: E. coli KASIII F304A (protein)
chain: MYTKIIGTGSYLPEQVRTNADLEKMVDTSDEWIVTRTGIRERHIAAPNETVSTMGFEAATRAIEMAGIEKDQIGLIVVATTSATHAFPSAACQIQSMLGIKGCPAFDVAAACAGFTYALSVADQYVKSGAVKYALVVGSDVLARTCDPTDRGTIIIFGDGAGAAVLAASEEPGIISTHLHADGSYGELLTLPNADRVNPENSIHLTMAGNEVFKFAVTEMAHIVDETLAANNLDRSQLDWLVPHQANLRIISATAKKLGMSMDNVVVTLDRHGNTSAASVPCALDEAVRDGRIKPGQLVLLEAAGGGFTWGSALVRF
modifications: E. coli mutant; (304)..(304) phenylalanine at amino acid position 304 replaced with alanine
Regarding B3, in data set [2] (mutant vs wild-type), the “Lower saturation transfer to the HT protons of acetyl-CoA and isobutyryl-CoA compared to the wild-type” value is “approximately 60%”.

B4: E. coli KASIII V215F_L220M: E. coli KASIII double mutant V215F_L220M, amino acid sequence SEQ ID NO:116 (protein)
chain: MYTKIIGTGSYLPEQVRTNADLEKMVDTSDEWIVTRTGIRERHIAAPNETVSTMGFEAATRAIEMAGIEKDQIGLIVVATTSATHAFPSAACQIQSMLGIKGCPAFDVAAACAGFTYALSVADQYVKSGAVKYALVVGSDVLARTCDPTDRGTIIIFGDGAGAAVLAASEEPGIISTHLHADGSYGELLTLPNADRVNPENSIHLTMAGNEVFKFAVTEMAHIVDETLAANNLDRSQLDWLVPHQANLRIISATAKKLGMSMDNVVVTLDRHGNTSAASVPCALDEAVRDGRIKPGQLVLLEAFGGGFTWGSALVRF
modifications: E. coli mutant; (215)..(215) valine at amino acid position 215 replaced with phenylalanine; (220)..(220) leucine at amino acid position 220 replaced with methionine
Regarding B4, in data set [1], the “Specific Activity with Acetyl-CoA” value was 221 ± 104 nmol/min/mg and the “Specific Activity with Isobutyryl-CoA” value worked out at 18 ± 5 nmol/min/mg.

B5: B. subtilis KASIIIa Wild-type: B. subtilis KASIIIA, bfabHA (yjaX) locus, GenBank CAB12974.1, amino acid sequence SEQ ID NO:64 (protein)
chain: MKAGILGVGRYIPEKVLTNHDLEKMVETSDEWIRTRTGIEERRIAADDVFSSHMAVAAAKNALEQAEVAAEDLDMILVATVTPDQSFPTVSCMIQEQLGAKKACAMDISAACAGFMYGVVTGKQFIESGTYKHVLVVGVEKLSSITDWEDRNTAVLFGDGAGAAVVGPVSDDRGILSFELGADGTGGQHLYLNEKRHTIMNGREVFKFAVRQMGESCVNVIEKAGLSKEDVDFLIPHQANIRIMEAARERLELPVEKMSKTVHKYGNTSAASIPISLVEELEAGKIKDGDVVVMVGFGGGLTWGAIAIRWGR
modifications: B. subtilis
For the molecule B5, the “Higher saturation of HAP proton of isobutyryl-CoA as compared to the acetyl-CoA HAP proton” value in data set [2] (isobutyryl-CoA vs acetyl-CoA) is recorded as approximately 28%. Also, in data set [2] (protein/ligand 1:100, 25° C.), the “STD amplification factor (STDaf), HT proton of acetyl-CoA” value amounted to 1.5 and the “STD amplification factor (STDaf), HT proton of isobutyryl-CoA” value is listed as 1.5. The “Catalytic activity with the isobutyryl-CoA substrate retained” value in data set [1] (conserved Phe mutated to Ala, compared with wild-type) is “about 25%”. In addition, in data set [1], the “Specific Activity with Acetyl-CoA” value is 64 ± 32 nmol/min/mg and the “Specific Activity with Isobutyryl-CoA” value is 205 ± 139 nmol/min/mg.

B6: B. subtilis KASIIIa F297A: B. subtilis KASIII containing an F297A mutation, amino acid sequence SEQ ID NO:126 (protein)
chain: MKAGILGVGRYIPEKVLTNHDLEKMVETSDEWIRTRTGIEERRIAADDVFSSHMAVAAAKNALEQAEVAAEDLDMILVATVTPDQSFPTVSCMIQEQLGAKKACAMDISAACAGFMYGVVTGKQFIESGTYKHVLVVGVEKLSSITDWEDRNTAVLFGDGAGAAVVGPVSDDRGILSFELGADGTGGQHLYLNEKRHTIMNGREVFKVAVRQLGESCVNVIEKAGLSKEDVDFLIPHQANIRIMEAARERLELPVEKMSKTVHKYGNTSAASIPISLVEELEAGKIKDGDVVVMVGAGGGLTWGAIAIRWGR
modifications: B. subtilis KASIIIA mutant; (297)..(297) phenylalanine at amino acid position 297 replaced with alanine
Regarding B6, the “Specific Activity with Isobutyryl-CoA” value in data set [1] is recorded as 56 ± 28 nmol/min/mg.

B7: B. subtilis KASIIIa F208V: B. subtilis KASIIIA single mutant F208V, amino acid sequence SEQ ID NO:120 (protein)
chain: MKAGILGVGRYIPEKVLTNHDLEKMVETSDEWIRTRTGIEERRIAADDVFSSHMAVAAAKNALEQAEVAAEDLDMILVATVTPDQSFPTVSCMIQEQLGAKKACAMDISAACAGFMYGVVTGKQFIESGTYKHVLVVGVEKLSSITDWEDRNTAVLFGDGAGAAVVGPVSDDRGILSFELGADGTGGQHLYLNEKRHTIMNGREVFKVAVRQMGESCVNVIEKAGLSKEDVDFLIPHQANIRIMEAARERLELPVEKMSKTVHKYGNTSAASIPISLVEELEAGKIKDGDVVVMVGFGGGLTWGAIAIRWGR
modifications: B. subtilis KASIIIA mutant; (208)..(208) phenylalanine at amino acid position 208 replaced with valine
Consider B7, for which the “Decrease in saturation transfer/STDaf for isobutyryl-CoA HT and HB protons in comparison to the wild-type” value in data set [2] (mutant vs wild-type) is reported as approximately 40%.

B8: B. subtilis KASIIIa F208V_M213L: B. subtilis KASIIIA double mutant F208V_M213L, amino acid sequence SEQ ID NO:124 (protein)
chain: MKAGILGVGRYIPEKVLTNHDLEKMVETSDEWIRTRTGIEERRIAADDVFSSHMAVAAAKNALEQAEVAAEDLDMILVATVTPDQSFPTVSCMIQEQLGAKKACAMDISAACAGFMYGVVTGKQFIESGTYKHVLVVGVEKLSSITDWEDRNTAVLFGDGAGAAVVGPVSDDRGILSFELGADGTGGQHLYLNEKRHTIMNGREVFKVAVRQLGESCVNVIEKAGLSKEDVDFLIPHQANIRIMEAARERLELPVEKMSKTVHKYGNTSAASIPISLVEELEAGKIKDGDVVVMVGFGGGLTWGAIAIRWGR
modifications: B. subtilis KASIIIA double mutant; (208)..(208) phenylalanine at amino acid position 208 replaced with valine; (213)..(213) methionine at amino acid position 213 replaced with leucine
Regarding B8, the “Specific Activity with Isobutyryl-CoA” value in data set [1] amounted to 17 ± 7 nmol/min/mg.
